Data from patent US20140271675A1 (Eli Lilly, published 2014).

Columns and labels:
[1] = target: hVEGFR1-Fc (R&D 321-fl 050/cf) (human) (UniProt P17948); test: competition ELISA, coated hVEGFR1-Fc, competitor biotin-hPLGF1 2 nM; control Ron antibody 5.556 µg/ml
[2] = target: hVEGFR1-Fc (R&D 321-fl 050/cf) (human) (UniProt P17948); test: competition ELISA, coated hVEGFR1-Fc, competitor biotin-hPLGF1 2 nM; control Ron antibody 50.000 µg/ml
[3] = target: hVEGFR1-Fc (R&D 321-fl 050/cf) (human) (UniProt P17948); test: competition ELISA, coated hVEGFR1-Fc, competitor biotin-hPLGF1 4 nM; control Ron antibody 0.0617 µg/ml
[4] = target: hVEGFR1-Fc (R&D 321-fl 050/cf) (human) (UniProt P17948); test: competition ELISA, coated hVEGFR1-Fc, competitor biotin-hVEGFA-165 2 nM; control Ron antibody 0.023 µg/ml
[5] = target: hVEGFR1-Fc (R&D 321-fl 050/cf) (human) (UniProt P17948); test: competition ELISA, coated hVEGFR1-Fc, competitor biotin-hVEGFA-165 2 nM; control Ron antibody 0.617 µg/ml
[6] = target: hVEGFR1-Fc (R&D 321-fl 050/cf) (human) (UniProt P17948); test: competition ELISA, coated hVEGFR1-Fc, competitor biotin-hVEGFA-165 2 nM; control Ron antibody 0.0023 µg/ml
[7] = target: hVEGFR1-Fc (R&D 321-fl 050/cf) (human) (UniProt P17948); test: competition ELISA, coated hVEGFR1-Fc, competitor biotin-hVEGFA-165 2 nM; control Ron antibody 0.0069 µg/ml
[8] = target: hVEGFR1-Fc (R&D 321-fl 050/cf) (human) (UniProt P17948); test: competition ELISA, coated hVEGFR1-Fc, competitor biotin-hVEGFA-165 2 nM; control Ron antibody 0.5556 µg/ml

hVEGFR1-Fc (R&D 321-fl 050/cf) (human), sequence (P17948 27-758): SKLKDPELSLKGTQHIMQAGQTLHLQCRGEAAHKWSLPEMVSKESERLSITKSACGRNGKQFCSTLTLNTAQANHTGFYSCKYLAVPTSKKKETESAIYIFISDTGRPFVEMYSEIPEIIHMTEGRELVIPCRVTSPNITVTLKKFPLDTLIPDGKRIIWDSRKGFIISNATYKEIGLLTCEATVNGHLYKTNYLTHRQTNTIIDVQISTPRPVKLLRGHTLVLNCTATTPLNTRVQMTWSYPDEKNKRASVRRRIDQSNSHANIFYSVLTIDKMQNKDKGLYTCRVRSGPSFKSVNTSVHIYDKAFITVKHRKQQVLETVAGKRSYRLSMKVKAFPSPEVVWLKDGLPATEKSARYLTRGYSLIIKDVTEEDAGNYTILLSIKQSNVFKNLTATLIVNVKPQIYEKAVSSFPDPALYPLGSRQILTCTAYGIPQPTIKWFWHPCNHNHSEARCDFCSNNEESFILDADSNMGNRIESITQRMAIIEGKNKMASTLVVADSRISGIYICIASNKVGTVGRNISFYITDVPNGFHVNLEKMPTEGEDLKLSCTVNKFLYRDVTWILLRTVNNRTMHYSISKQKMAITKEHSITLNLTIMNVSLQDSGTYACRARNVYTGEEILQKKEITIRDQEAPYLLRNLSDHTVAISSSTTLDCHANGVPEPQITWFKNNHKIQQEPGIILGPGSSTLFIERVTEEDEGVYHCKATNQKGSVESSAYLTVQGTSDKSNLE

control Ron antibody (R&D MAB691) gave an OD560 (bound biotinylated PlGF) [1] of 0.298 OD, an OD560 (bound biotinylated PlGF) [2] of 0.339 OD and an OD560 (bound biotinylated PlGF) [3] of 0.408 OD. For the same substance, the OD560 (bound biotinylated VEGF-A) [4] was 0.506 OD, the OD560 (bound biotinylated VEGF-A) [5] was 0.535 OD and the OD560 (bound biotinylated VEGF-A) [6] was 1.54 OD. For the same substance, the OD560 (bound biotinylated VEGF-A) [7] was 1.53 OD and the OD560 (bound biotinylated VEGF-A) [8] was 1.47 OD.
